Experimental data as given in the supplement of paper PMC9170038.

Tested on: MS2 coat protein
Experiment: apparent KD of MS2 coat protein; designed switch direction (-1 OFF switch, 1 ON switch): 1; higher = weaker reporter binding
Outline: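 The reported apparent KD is a per-design median over clusters, from curve fits of normalised cluster fluorescence. Protein titrations used SNAP-549-labelled MS2 coat protein, doubled from 0.7 or 1.5 nM to 3 µM, in Tris-HCl pH 7.5 buffer with KCl, MgCl2, BSA, DTT, tRNA and Tween-20, with no input, 200 uM small-molecule ligand, or an oligonucleotide input. The RNA switches were transcribed on Illumina chips by stalled E. coli RNA polymerase.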

[1] = input ligand: microRNA oligo, concentration not stated
[2] = Eterna round: R95, input ligand: FMN 200 uM
[3] = Eterna round: R95, input ligand: microRNA oligo, concentration not stated
[4] = Eterna round: R95, input ligand: none

Sequence	apparent KD of MS2 coat protein (input ligand: FMN 200 uM) [nM]	apparent KD of MS2 coat protein [1] [nM]	apparent KD of MS2 coat protein (input ligand: none) [nM]	apparent KD of MS2 coat protein [2] [nM]	apparent KD of MS2 coat protein [3] [nM]	apparent KD of MS2 coat protein [4] [nM]
AGAGGAGGAGCAGGAUAUUCGACGGAGGACGUGGAAGAAGGGUUCAUGCGAUGACAUGAGGAUCACCCAUGUACCGCGCGUCGA [AK SSNG1-V2-15.1] (Eterna round: R96, puzzle: Same State NG 1)	143	106	478	–	–	–
AGAUCAUGACGAGGAUAUCCGACAUGAGGAUCACCCAUGUAUGUCGGAGGACGCGUACGUCCAAAGGAGAAGGCGUCGUGGUCA [JL SSNG2 1.02] (Eterna round: R96, puzzle: Same State NG 2)	17.4	48.4	100	–	–	–
AGAUCAUGACGAGGAUAUGCGACAUGAGGAUCACCCAUGUAUGUUGCAGGACGCGUACGUCCAAUGUAGAAGGCGUCGUGGUCA [JL SSNG2 1.05] (Eterna round: R96, puzzle: Same State NG 2)	22.8	65.1	88.7	–	–	–
AGAUCAUGACGAGGAUAUGGAACAUGAGGAUCACCCAUGUAUGUUCCAUAACGCGAAUGACGAAUCCAGAAGGCGUCGUGGUCA [JL SSNG2 1.10] (Eterna round: R96, puzzle: Same State NG 2)	15.6	112	168	–	–	–
AGAUCAUGACGAGGAUAUGGUACAUGAGGAUCACCCAUGUAUGUACCACGACGCGUACGUCGAAUCCAGAAGGCGUCAUGGUCA [Mat - Same State NG 2 - JL mod - D17] (Eterna round: R96, puzzle: Same State NG 2)	17.8	51.3	119	–	–	–
AGAUCAUGACGAGGAUAUGGUACAUGAGGAUCACCCAUGUAUGUACCACGACGCGUACGUCGAAUCCAGAAGGCGUCGUGGUCA [JL SSNG2 1.07] (Eterna round: R96, puzzle: Same State NG 2)	23.3	27.7	41.6	–	–	–
AGAUCAUGACGAGGAUAUGGUACAUGAGGAUCACCCAUGUAUGUACUAUAAUCCGAAUGAGGAAUCCAGAAGGCGUCGUGGUCA [JL SSNG2 1.14] (Eterna round: R96, puzzle: Same State NG 2)	44.9	94.1	145	–	–	–
AGCAUACAUGAGGAUCACCCAUGUCAACUUAGUCGAGGAUAUGGGCAGCCCUGAGGCGAACCAGAAGGCGAAUUGA [Mat - Same State 1 - Mod of JL - D1] (puzzle: Same State 1)	–	–	–	28.3	51.5	66.1
AGCCGAAGCGCAGGAUAUACAUGUAUACAUGAGGAUCACCCAUGUAGCAACACGUGGUAGUGAUUGUAGAAGGGUGCUCGGCGC [Omei SS(NG)2 Cv15] (Eterna round: R96, puzzle: Same State NG 2)	–	18.6	–	–	–	–
AGCUAUUAAUCAGGAUAUGGUCACAUGAGGAUCACCCAUGUAACGAUGAUAUAAUGUGGUCAAAACUAGAAGGGAUUGCUAACA [SameState NG2 #65] (Eterna round: R96, puzzle: Same State NG 2)	341	216	290	–	–	–
AGCUAUUAAUCAGGAUAUGGUCACAUGAGGAUCACCCAUGUAACGAUGAUAUAAUGUGGUCAAGACUAGAAGGGAUUGCUAACA [SameState NG2 #66] (Eterna round: R96, puzzle: Same State NG 2)	169	221	191	–	–	–
AGCUAUUAAUCAGGAUAUGGUCACAUGAGGAUCACCCAUGUGUAGAUGAUAAAAUGUGGUCUACACUAGAAGGGAUUGCUAACA [SameState NG2 #60] (Eterna round: R96, puzzle: Same State NG 2)	524	216	236	–	–	–
AGCUAUUAAUCAGGAUAUGGUGACAUGAGGAUCACCCAUGUAUAGAUGAUUAAAUGUGGUCUAAACUAGAAGGGAUUACUAACA [SameState NG2 #54] (Eterna round: R96, puzzle: Same State NG 2)	156	283	268	–	–	–
AGCUAUUACGAAGGAUAUUCUGACAUGAGGAUCACCCAUGUCUUCAUGAUUUAUUGUGAUCACGUGAAGAAGGUUGUACUAACA [SameState NG2 #26] (Eterna round: R96, puzzle: Same State NG 2)	66.4	72.2	72.2	–	–	–
AGGACGAGCACAGGAUAUCCACGGAAAAGACGCGGAGAAGGGUGAAGUCAUGGAAAGAAAAGACAUGAGGAUCACCCAUGUAAA [Dibema] (Eterna round: R96, puzzle: Same State NG 1)	26.2	20.5	28.4	–	–	–
AGGCGGAUAUCACAGGAUAUGUGCGCGUUCACAUGAGGAUCACCCAUGUAAAGGACGAGCCAAAAGCAGAAGGGUGACCACGCGA [Aedorlebe] (puzzle: Same State 2)	–	–	–	15.3	14.8	25.4
AGGCUCAGACGAGGAUAUAUGUGAUCACAUGAGGAUCACCCAUGUCUCGAGCUUCGGCUCGAGACAUAGAAGGCGUCUGAGCCA [SSNG2/3-A1] (Eterna round: R96, puzzle: Same State NG 2)	505	8.91	21.4	–	–	–
AGGUAACAUGAGGAUCACCCAUGUAAGGUGAACGUAGGAUAUCGAAGAGGUAGGGUAGGACGAGAAGGACGAGGAA [JR_SS1_Sub092] (puzzle: Same State 1)	–	–	–	347	346	481
AGUAUUAAUGCAGGAUAUGAUUAACAUGAGGAUCACCCAUGUGGUGUUGUGAGUAAGGAGAGUGAUCAGAAGGGCAUUUUUUUU [JMF's solution 38] (Eterna round: R96, puzzle: Same State NG 2)	414	175	502	–	–	–
AGUCCAGCAAGAGCUGGACAAAAGCAUGUACAUGAGGAUCACCCAUGUUCAUGUACAAGCUUUUUGCUCGUCAAAAG [Mat - hsa-mir-208a - Mod of JL - 72] (puzzle: Sensor for hsa-mir-208a)	–	–	–	216	19.9	318
AGUCCAGCCUAAGCUGGACAAAAGCAUGUACAUGAGGAUCACCCAUGUUCAUGUACAAGCUUUUUGCAAGUCAAAAG [Mat - hsa-mir-208a - Mod of JL - 76] (puzzle: Sensor for hsa-mir-208a)	–	–	–	350	28.1	664
AGUCCAGCCUAAGCUGGACAAAAGCAUGUACAUGAGGAUCACCCAUGUUCAUGUACAAGCUUUUUGCUCGUCAAAAG [Mat - hsa-mir-208a - Mod of JL - 68] (puzzle: Sensor for hsa-mir-208a)	–	–	–	194	19.6	242
AGUCCAGCCUAAGCUGGACAAAAGCAUGUACAUGAGGAUCACCCAUGUUCAUGUACAAGCUUUUUGCUCGUCUUAAG [Mat - hsa-mir-208a - Mod of JL - 65] (puzzle: Sensor for hsa-mir-208a)	–	–	–	864	18.7	844
AGUCCAGCCUGAGCUGGACAAAAGCAUGUACAUGAGGAUCACCCAUGUCAUGUACAAGCUUUUUGCACGUCUUAAAA [Mat - hsa-mir-208a - Mod of JL - D13] (puzzle: Sensor for hsa-mir-208a)	–	–	–	1120	16.4	542
AGUCCAGCCUGAGCUGGACAAAAGCAUGUACAUGAGGAUCACCCAUGUCAUGUACAAGCUUUUUGCUCGUCAUAAAA [Mat - hsa-mir-208a - Mod of JL - D8] (puzzle: Sensor for hsa-mir-208a)	–	–	–	578	14.7	651
AGUCCAGCCUGAGCUGGACAAAAGCAUGUACAUGAGGAUCACCCAUGUUAUGUACAAGCUUUUUGCUCGUUUUAAUA [Zipper 49 - 15] (puzzle: Sensor for hsa-mir-208a)	–	–	–	191	13.1	199
AGUCCAGCCUGAGCUGGACAAAAGUAUGUACAUGAGGAUCACCCAUGUCAUGUACAAGCUUUUUGCUCGUUUUAAUA [Zipper 49 - 17] (puzzle: Sensor for hsa-mir-208a)	–	–	–	424	33.8	517
AGUCCAGCGAAAGCUGGACAAAAGCAUGUACAUGAGGAUCACCCAUGUUCGUGUACAAGCUUUUUGCUCGUCUUAAA [JL mod - D95 - 5] (puzzle: Sensor for hsa-mir-208a)	–	–	–	536	14.6	554
AGUCCUGAAAAGAAAAUACAGAGACAUGUACAUGAGGAUCACCCAUGUCAUGUACAAGUUCUAUGCUCGUCAUAUAA [Sensorship 20 - Jieux - Sensor for hsa-mir-208a] (puzzle: Sensor for hsa-mir-208a)	–	–	–	22.4	15.8	21
AGUCUACGGUGACGUAGACAGUAGUGCGUACAUGAGGAUCACCCAUGUCAUGUAAGAGUUACUUGUUCGUCUUGAAC [SENSOR #3] (puzzle: Sensor for hsa-mir-208a)	–	–	–	20.4	16.9	20.2
